Experimental data: paper doi:10.1101/2025.07.08.663041

How the values were obtained:
Caveolin-1 L125C 98W = Caveolin-1 L125C 98W (UniProt Q03135)
Caveolin-1 I121C 98W = Caveolin-1 I121C 98W (UniProt Q03135)

| stoichiometry N (Caveolin-1 L125C 98W) | stoichiometry N (Caveolin-1 I121C 98W) | Substance |
| --- | --- | --- |
| 2 | – | Caveolin-1 L125C 98W (from UniProt Q03135 1-178) (natural protein) |
| – | 2 | Caveolin-1 I121C 98W (from UniProt Q03135 1-178) (natural protein) |
